Results: patent US20260159606A1 (VIB VZW, published 2026)

T1: D275N- and R277T-mutant hPIV-3 HN, expressed on transfected HEK293T cells (human parainfluenza virus 3 (hPIV-3), UniProt P08492 1-572)
T1 construct: also called mut HN3
T1 chain: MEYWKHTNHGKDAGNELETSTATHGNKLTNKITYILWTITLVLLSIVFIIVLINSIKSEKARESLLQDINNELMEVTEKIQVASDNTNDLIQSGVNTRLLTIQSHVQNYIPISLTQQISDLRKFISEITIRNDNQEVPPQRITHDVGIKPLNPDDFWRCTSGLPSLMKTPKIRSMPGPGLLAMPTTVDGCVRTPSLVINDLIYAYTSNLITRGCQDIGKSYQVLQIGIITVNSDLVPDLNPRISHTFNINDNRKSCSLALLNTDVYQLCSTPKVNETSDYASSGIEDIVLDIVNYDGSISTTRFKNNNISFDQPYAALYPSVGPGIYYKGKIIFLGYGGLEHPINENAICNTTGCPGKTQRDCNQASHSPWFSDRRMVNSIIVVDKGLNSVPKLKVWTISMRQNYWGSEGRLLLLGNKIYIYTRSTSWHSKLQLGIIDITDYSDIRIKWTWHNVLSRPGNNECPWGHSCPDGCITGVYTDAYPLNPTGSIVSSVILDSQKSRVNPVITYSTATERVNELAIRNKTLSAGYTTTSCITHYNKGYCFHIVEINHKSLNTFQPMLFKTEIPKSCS

T2: hPIV-3 hemagglutinin-neuraminidase (HN), expressed on transfected HEK293T cells (human parainfluenza virus 3 (hPIV-3), UniProt P08492 1-572)
T2 construct: also called hPIV-3 HN; HN3
T2 chain: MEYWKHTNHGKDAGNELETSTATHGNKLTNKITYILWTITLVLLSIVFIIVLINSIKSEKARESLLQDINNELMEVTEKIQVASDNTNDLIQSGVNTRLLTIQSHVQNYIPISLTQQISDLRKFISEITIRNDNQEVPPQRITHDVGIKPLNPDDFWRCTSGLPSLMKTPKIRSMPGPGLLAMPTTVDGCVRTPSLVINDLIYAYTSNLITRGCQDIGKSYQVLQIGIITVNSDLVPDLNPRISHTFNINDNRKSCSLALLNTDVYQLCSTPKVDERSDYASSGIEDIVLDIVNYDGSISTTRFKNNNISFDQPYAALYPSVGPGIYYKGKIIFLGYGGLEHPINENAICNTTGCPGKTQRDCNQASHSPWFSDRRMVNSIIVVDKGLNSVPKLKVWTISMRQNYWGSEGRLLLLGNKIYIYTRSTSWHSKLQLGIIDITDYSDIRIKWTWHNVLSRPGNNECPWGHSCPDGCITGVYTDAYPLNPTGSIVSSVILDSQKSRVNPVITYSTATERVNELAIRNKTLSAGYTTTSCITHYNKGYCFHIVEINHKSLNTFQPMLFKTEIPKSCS

B1: bivalent VHH A2R3-57-57 (VHH)
chain: QVQLQESGGGLVQPGGSLRLSCAASGSIFSTDAMGWYRQPPGKQRELVATITSGGSTNYVDSVKGRFTISRDNAKNTVYLQMNSLKPEDTAVYYCALHQTTGWGLYNDYWGQGTQVTVSSGGGGSGGGGSGGGGSQVQLQESGGGLVQPGGSLRLSCAASGSIFSTDAMGWYRQPPGKQRELVATITSGGSTNYVDSVKGRFTISRDNAKNTVYLQMNSLKPEDTAVYYCALHQTTGWGLYNDYWGQGTQVTVSS
notes: also called bivalent A2R3-57
B2: humanized A2R3-60-Fc construct version 1 (Fc fusion)
chain: DVQLVESGGGLVQPGGSLRLSCAASGTTVSINGMGWYRQAPGKQREFVALSTTGGVTNYADSVKGRFTISRDNAKNTVYLQMNSLRPEDTAVYYCNAVASPSWGLYDDYWGQGTLVTVSSGGGGSGGGGSDKTHTCPPCPAPEAAGGPSVFLFPPKPKDTLMISRTPEVTCVVVDVSHEDPEVKFNWYVDGVEVHNAKTKPREEQYNSTYRVVSVLTVLHQDWLNGKEYKCKVSNKALGAPIEKTISKAKGQPREPQVYTLPPSRDELTKNQVSLTCLVKGFYPSDIAVEWESNGQPENNYKTTPPVLDSDGSFFLYSKLTVDKSRWQQGNVFSCSVMHEALHNHYTQKSLSLSPG
notes: also called A2R3-h60-Fc; h60-Fc
B3: bivalent VHH A2R3-60-60 (VHH)
chain: QVQLQESGGGLVQPGGSLRLDCAASGTTVSINGMGWYRQAPGKQREFVALSTTGGVTNYADSVKGRFTISMDNAKKTVALQMNSLKPEDTAVYYCNAVASPSWGLYDDYWGQGTQVTVSSGGGGSGGGGSGGGGSQVQLQESGGGLVQPGGSLRLDCAASGTTVSINGMGWYRQAPGKQREFVALSTTGGVTNYADSVKGRFTISMDNAKKTVALQMNSLKPEDTAVYYCNAVASPSWGLYDDYWGQGTQVTVSS
notes: also called bivalent A2R3-60
B4: VHH A2R3-57 (VHH)
VHH: QVQLQESGGGLVQPGGSLRLSCAASGSIFSTDAMGWYRQPPGKQRELVATITSGGSTNYVDSVKGRFTISRDNAKNTVYLQMNSLKPEDTAVYYCALHQTTGWGLYNDYWGQGTQVTVSS
notes: also called 2AR-57
B5: humanized A2R3-59-59 bivalent construct version 1 (VHH)
chain: DVQLVESGGGLVQPGGSLRLSCAASGSISGINGMGWYRQAPGKQRELVAAITSGGSTNYADSVKGRFTISRDNAKNTVYLQMNSLRPEDTAVYYCYVSSTPSWGLYDDYWGQGTLVTVSSGGGGSGGGGSGGGGSEVQLVESGGGLVQPGGSLRLSCAASGSISGINGMGWYRQAPGKQRELVAAITSGGSTNYADSVKGRFTISRDNAKNTVYLQMNSLRPEDTAVYYCYVSSTPSWGLYDDYWGQGTLVTVSS
notes: also called A2R3-h59-59
B6: VHH A2R3-59 (VHH)
VHH: QVQLQESGGGLVQPGGSLRLSCAASGSISGINGMGWYRQAPGKQRELVAAITSGGSTNYADSVKGRFTISRDNAKNTVDLQMNSLQPEDTAVYYCYVSSTPSWGLYDDYWGQGTQVTVSS
notes: also called 2AR3-59
B7: VHH A2R3-60 (VHH)
VHH: QVQLQESGGGLVQPGGSLRLDCAASGTTVSINGMGWYRQAPGKQREFVALSTTGGVTNYADSVKGRFTISMDNAKKTVALQMNSLKPEDTAVYYCNAVASPSWGLYDDYWGQGTQVTVSS
notes: also called 2AR3-60
B8: humanized A2R3-59-Fc construct version 1 (Fc fusion)
chain: DVQLVESGGGLVQPGGSLRLSCAASGSISGINGMGWYRQAPGKQRELVAAITSGGSTNYADSVKGRFTISRDNAKNTVYLQMNSLRPEDTAVYYCYVSSTPSWGLYDDYWGQGTLVTVSSGGGGSGGGGSDKTHTCPPCPAPEAAGGPSVFLFPPKPKDTLMISRTPEVTCVVVDVSHEDPEVKFNWYVDGVEVHNAKTKPREEQYNSTYRVVSVLTVLHQDWLNGKEYKCKVSNKALGAPIEKTISKAKGQPREPQVYTLPPSRDELTKNQVSLTCLVKGFYPSDIAVEWESNGQPENNYKTTPPVLDSDGSFFLYSKLTVDKSRWQQGNVFSCSVMHEALHNHYTQKSLSLSPG
notes: also called h59-Fc; A2R3-h59-Fc
B9: humanized A2R3-60-60 bivalent construct version 1 (VHH)
chain: DVQLVESGGGLVQPGGSLRLSCAASGTTVSINGMGWYRQAPGKQREFVALSTTGGVTNYADSVKGRFTISRDNAKNTVYLQMNSLRPEDTAVYYCNAVASPSWGLYDDYWGQGTLVTVSSGGGGSGGGGSGGGGSEVQLVESGGGLVQPGGSLRLSCAASGTTVSINGMGWYRQAPGKQREFVALSTTGGVTNYADSVKGRFTISRDNAKNTVYLQMNSLRPEDTAVYYCNAVASPSWGLYDDYWGQGTLVTVSS
notes: also called A2R3-h60-60
B10: bivalent VHH A2R3-55 (VHH)
chain: QVQLQESGGGLVQAGGSLRLSCAASGSIDRIDAMGWSRQAPGKQRELVATITTGGITNYAVSVKGRFTISRDNAKNTVYLQMNSLKPEDTAVYYCNAQGAPSWGLYEDYWGQGTQVTVSSGGGGSGGGGSGGGGSQVQLQESGGGLVQAGGSLRLSCAASGSIDRIDAMGWSRQAPGKQRELVATITTGGITNYAVSVKGRFTISRDNAKNTVYLQMNSLKPEDTAVYYCNAQGAPSWGLYEDYWGQGTQVTVSS
notes: also called bivalent A2R3-55

What was measured:
[1] = molecular target: T1, D275N- and R277T-mutant hPIV-3 HN, …; assay: flow cytometry on transfected HEK293T cells (FIG. 11C)
[2] = molecular target: HN of hPIV-3-GFP virus (on virions and on hPIV-3-infected cells) (human parainfluenza virus 3 (hPIV-3), UniProt P08492 1-572); assay: cell-based or functional assay
[3] = molecular target: T3, recombinant hPIV-1 HN-dGCN4 (human parainfluenza virus 1 (hPIV-1), UniProt P16071 138-575); assay: ELISA, HN protein coated (50 ng), 1/3 dilution series (FIG. 18)
T3 construct: domain: head domain; also called hPIV-1 HN linked to dGCN4; not shown: strep-tag II

[4] = molecular target: T4, recombinant hPIV-3 HN-dGCN4 (human parainfluenza virus 3 (hPIV-3), UniProt P08492 136-572); assay: as above
T4 construct: domain: head domain; also called hPIV-3 HN linked to dGCN4; not shown: strep-tag II

[5] = molecular target: T5, recombinant hPIV-1 HN-tetraGCN4 (human parainfluenza virus 1 (hPIV-1), UniProt P16071 138-575); assay: as above
T5 construct: domain: head domain; also called hPIV-1 HN linked to tetraGCN4; not shown: strep-tag II

[6] = molecular target: T2, hPIV-3 hemagglutinin-neuraminidase …; assay: flow cytometry on transfected HEK293T cells, 10 µg/ml (FIG. 16A)
[7] = molecular target: T1, D275N- and R277T-mutant hPIV-3 HN, …; assay: flow cytometry on transfected HEK293T cells, VHH 1 or 0.1 µg/ml (FIG. 11C)
[8] = molecular target: T2, hPIV-3 hemagglutinin-neuraminidase …
[9] = molecular target: T6, hPIV-3 fusion protein (F), expressed on transfected HEK293T cells (human parainfluenza virus 3 (hPIV-3), UniProt P06828 19-539); assay: flow cytometry on transfected HEK293T cells (FIG. 4)
T6 construct: whole, on cells

Binder	binding result [1]	fold higher potency of hPIV-3-GFP neutralization than the monovalent counterpart [2] [fold]	binding result [6]	binding result [7]	fold reduction of binding at 500 µg/ml of zanamivir [8] [fold]	binding result [9]	other results
B1	no binding (tested: 1 or 0.1 µg/ml)	~150					
B2			binds				EC50 [3]: 32 µg/mL; EC50 [4]: 0.018 µg/mL; EC50 [5]: 71 µg/mL
B3		~7.5	binds	binds			EC50 [3]: 167 µg/mL; EC50 [4]: 0.02 µg/mL; EC50 [5]: 50 µg/mL
B4	no binding (tested: 1 or 0.1 µg/ml)				~5	no binding (tested: 1 µg/ml)	
B5			binds				
B6				binds	2.4	no binding (tested: 1 µg/ml)	
B7				binds	1.5	no binding (tested: 1 µg/ml)	
B8			binds				
B9			binds				
B10	no binding (tested: 1 or 0.1 µg/ml)	~50					
